Measured values: patent US20150374794A1 (Novo Nordisk, published 2015)
Numbered stars: 1 amine (or outer) side, 2 acyl side, 3 side chain; on linkers, the order of the positions; unused ones are H or OH. Square brackets hold non-standard residues; d marks the D form. Side chains are listed from the residue outwards. Ends that are not written are not given here. * marks the point of attachment. C18 diacid = O=C(O)CCCCCCCCCCCCCCCCC(=O)*; γGlu = O=C(O)[C@H](CCC(=O)[*:2])N[*:1]; AEEA = NCCOCCOCC(=O)O; Aib = CC(C)(N)C(=O)O

Experiments:
[1] = target: T1, human GLP-1 receptor (human, UniProt P43220 24-463); assay: displacement of 125I-GLP-1(7-36)NH2, membranes with human GLP-1R, SPA
T1 construct: whole, on cells; the potency assay used whole cells (clone FCW467-12A/KZ10-1)
Protocol: (§1) The receptor binding of each compound to the human GLP-1 receptor was measured in a displacement binding assay. […] Each derivative was added in a series of concentrations to isolated membranes containing the human GLP-1 receptor and displacement of the labelled ligand was monitored. The receptor binding was reported as the concentration at which half of the labelled ligand was displaced from the receptor, the IC₅₀ value.

[2] = target: T2, human glucagon receptor (human, UniProt P47871 26-477); assay: displacement of 125I-glucagon, membranes with human glucagon receptor, SPA
T2 construct: whole, on cells; the potency assay used whole cells (clone pLJ6'-4-25); also called GlucR; hGCGR
Protocol: as §1, with “human glucagon” for “human GLP-1”, “ligand is” for “ligand was”

[3] = target: T2, human glucagon receptor; assay: cell-based or functional assay
[4] = target: T1, human GLP-1 receptor; assay: cell-based or functional assay

T2 sequence (P47871 26-477): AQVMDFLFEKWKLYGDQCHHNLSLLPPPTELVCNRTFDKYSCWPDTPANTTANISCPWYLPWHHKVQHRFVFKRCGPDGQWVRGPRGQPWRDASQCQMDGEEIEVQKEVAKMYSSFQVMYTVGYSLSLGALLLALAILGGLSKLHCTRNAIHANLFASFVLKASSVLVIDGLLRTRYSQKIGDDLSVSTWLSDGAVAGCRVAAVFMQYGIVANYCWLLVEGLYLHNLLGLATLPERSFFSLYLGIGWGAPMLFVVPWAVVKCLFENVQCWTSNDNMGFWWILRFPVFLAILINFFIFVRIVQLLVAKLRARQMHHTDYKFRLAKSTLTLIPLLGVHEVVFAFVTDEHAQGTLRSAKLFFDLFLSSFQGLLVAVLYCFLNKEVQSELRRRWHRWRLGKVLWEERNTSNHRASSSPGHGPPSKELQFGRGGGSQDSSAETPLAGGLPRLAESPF

Binder	IC50 [1]	IC50 [2]	EC50 GlucR, CRE luciferase reporter gene assay in BHK cells [3]	EC50 GLP-1R, CRE luciferase reporter gene assay in BHK cells [4]
H[Aib]QGTFTSDLSKYLDK([γGlu-γGlu-AEEA-AEEA-γGlu-C18 diacid])RRAREFVQWLLNT-NH2 (N-terminus assumed; SMILES CC(C)C[C@H](NC(=O)[C@H](Cc1ccc(O)cc1)NC(=O)[C@H](CCCCN)NC(=O)[C@H](CO)NC(=O)[C@H](CC(C)C)NC(=O)[C@H](CC(=O)O)NC(=O)[C@H](CO)NC(=O)[C@@H](NC(=O)[C@H](Cc1ccccc1)NC(=O)[C@@H](NC(=O)CNC(=O)[C@H](CCC(N)=O)NC(=O)C(C)(C)NC(=O)[C@@H](N)Cc1c[nH]cn1)[C@@H](C)O)[C@@H](C)O)C(=O)N[C@@H](CC(=O)O)C(=O)N[C@@H](CCCCNC(=O)CC[C@H](NC(=O)CC[C@H](NC(=O)COCCOCCNC(=O)COCCOCCNC(=O)CC[C@H](NC(=O)CCCCCCCCCCCCCCCCC(=O)O)C(=O)O)C(=O)O)C(=O)O)C(=O)N[C@@H](CCCNC(=N)N)C(=O)N[C@@H](CCCNC(=N)N)C(=O)N[C@@H](C)C(=O)N[C@@H](CCCNC(=N)N)C(=O)N[C@@H](CCC(=O)O)C(=O)N[C@@H](Cc1ccccc1)C(=O)N[C@H](C(=O)N[C@@H](CCC(N)=O)C(=O)N[C@@H](Cc1c[nH]c2ccccc12)C(=O)N[C@@H](CC(C)C)C(=O)N[C@@H](CC(C)C)C(=O)N[C@@H](CC(N)=O)C(=O)N[C@H](C(N)=O)[C@@H](C)O)C(C)C)	500 pM	1200 pM	42.3 pM	9.2 pM
H[Aib]QGTFTSDLSKYLDK([γGlu-γGlu-AEEA-γGlu-γGlu-C18 diacid])RRAQEFVQWLLNT-NH2 (N-terminus assumed; SMILES CC(C)C[C@H](NC(=O)[C@H](Cc1ccc(O)cc1)NC(=O)[C@H](CCCCN)NC(=O)[C@H](CO)NC(=O)[C@H](CC(C)C)NC(=O)[C@H](CC(=O)O)NC(=O)[C@H](CO)NC(=O)[C@@H](NC(=O)[C@H](Cc1ccccc1)NC(=O)[C@@H](NC(=O)CNC(=O)[C@H](CCC(N)=O)NC(=O)C(C)(C)NC(=O)[C@@H](N)Cc1c[nH]cn1)[C@@H](C)O)[C@@H](C)O)C(=O)N[C@@H](CC(=O)O)C(=O)N[C@@H](CCCCNC(=O)CC[C@H](NC(=O)CC[C@H](NC(=O)COCCOCCNC(=O)CC[C@H](NC(=O)CC[C@H](NC(=O)CCCCCCCCCCCCCCCCC(=O)O)C(=O)O)C(=O)O)C(=O)O)C(=O)O)C(=O)N[C@@H](CCCNC(=N)N)C(=O)N[C@@H](CCCNC(=N)N)C(=O)N[C@@H](C)C(=O)N[C@@H](CCC(N)=O)C(=O)N[C@@H](CCC(=O)O)C(=O)N[C@@H](Cc1ccccc1)C(=O)N[C@H](C(=O)N[C@@H](CCC(N)=O)C(=O)N[C@@H](Cc1c[nH]c2ccccc12)C(=O)N[C@@H](CC(C)C)C(=O)N[C@@H](CC(C)C)C(=O)N[C@@H](CC(N)=O)C(=O)N[C@H](C(N)=O)[C@@H](C)O)C(C)C)	1400 pM	5900 pM	58.8 pM	26.6 pM
